# ± gives the uncertainty stated by the source.
# B1: Peripheral plasma membrane protein CASK, residues 488 to 569; numbered along this chain, O14936 (parent)
# chain: VRLVQFQKNTDEPMGITLKMNELNHCIVARIMHGGMIHRQGTLHVGDEIREINGISVANQTVEQLQKMLREMRGSITFKIVP
# Variants of: B1
# Assay: abundance fitness (aPCA) (normalised: wild type 0, dead -1); higher = more abundant; growth selection in yeast, the domain comes from the species named
# Details: Homo sapiens
row,Variant,abundance fitness
1,L23Q,0.043 ± 0.035
2,L23K,0.005 ± 0.035
3,L23E,0.086 ± 0.028
4,L23P,-0.073 ± 0.036
5,L23S,0.028 ± 0.029
6,L23N,-0.038 ± 0.051
7,L23W,0.007 ± 0.026
8,L23F,-0.04 ± 0.049
9,L23Y,0.128 ± 0.043
10,L23T,0.044 ± 0.037
11,L23V,0.012 ± 0.025
12,L23C,0.013 ± 0.035
13,L23R,0.046 ± 0.022
14,L23G,0.033 ± 0.021
15,L23A,0.039 ± 0.028
16,L18T,-0.646 ± 0.086
17,L18K,-0.796 ± 0.14
18,L18H,-0.877 ± 0.28
19,L18Q,-0.797 ± 0.13
20,L18S,-0.699 ± 0.063
21,L18W,-0.492 ± 0.05
22,L18Y,-0.277 ± 0.15
23,L18C,-0.262 ± 0.045
24,L18F,0.04 ± 0.061

row,Variant,abundance fitness
1,L18V,-0.088 ± 0.029
2,L18A,-0.761 ± 0.065
3,L18P,-1.2 ± 0.22
4,L18N,-0.918 ± 0.35
5,L18R,-0.986 ± 0.07
6,L18M,-0.128 ± 0.05
7,L18D,-1.13 ± 0.23
8,L18E,-0.909 ± 0.096
9,L18I,-0.055 ± 0.098
10,E12H,-0.154 ± 0.07
11,E12G,-0.059 ± 0.024
12,E12V,-0.139 ± 0.029
13,E12P,-0.757 ± 0.15
14,E12D,-0.101 ± 0.05
15,E12F,-0.231 ± 0.076
16,E12L,-0.131 ± 0.033
17,E12Q,-0.063 ± 0.049
18,E12R,-0.143 ± 0.027
19,E12A,-0.08 ± 0.031
20,E12Y,-0.237 ± 0.07
21,E12I,-0.09 ± 0.094
22,E12S,-0.089 ± 0.037
23,E12M,-0.016 ± 0.04
24,E12N,-0.277 ± 0.066

row,Variant,abundance fitness
1,M20L,-0.016 ± 0.032
2,M20E,-0.302 ± 0.042
3,M20R,-0.034 ± 0.024
4,M20W,-0.044 ± 0.032
5,M20F,0.026 ± 0.059
6,M20I,-0.036 ± 0.053
7,M20S,-0.154 ± 0.033
8,M20C,-0.19 ± 0.047
9,M20H,-0.038 ± 0.062
10,M20T,-0.088 ± 0.04
11,M20V,-0.046 ± 0.03
12,M20Y,-0.01 ± 0.066
13,M20K,0.034 ± 0.029
14,M20Q,-0.059 ± 0.038
15,M20G,-0.453 ± 0.031
16,M20A,-0.128 ± 0.032
17,M20P,-0.325 ± 0.046
18,M20D,-0.489 ± 0.068
19,M20N,-0.16 ± 0.076
20,N9G,-0.027 ± 0.02
21,N9R,-0.031 ± 0.021
22,N9Q,-0.008 ± 0.027
23,N9L,0.019 ± 0.024
24,N9T,0.024 ± 0.029

row,Variant,abundance fitness
1,N9H,-0.027 ± 0.04
2,N9C,-0.092 ± 0.032
3,N9A,-0.003 ± 0.025
4,N9Y,-0.088 ± 0.039
5,N9E,0.055 ± 0.026
6,N9S,-0.009 ± 0.025
7,N9F,-0.035 ± 0.043
8,N9I,-0.015 ± 0.042
9,N9D,0.024 ± 0.033
10,N9V,0.005 ± 0.022
11,N9W,-0.081 ± 0.025
12,N9M,-0.012 ± 0.03
13,P13V,-0.046 ± 0.052
14,P13C,0.024 ± 0.06
15,P13A,-0.065 ± 0.07
16,P13N,-0.021 ± 0.042
17,P13E,-0.119 ± 0.091
18,P13Q,-0.183 ± 0.078
19,P13G,-0.024 ± 0.054
20,P13F,-0.126 ± 0.059
21,P13M,-0.1 ± 0.098
22,P13L,-0.125 ± 0.04
23,P13Y,-0.154 ± 0.056
24,P13D,-0.028 ± 0.085

row,Variant,abundance fitness
1,P13S,-0.036 ± 0.045
2,P13T,-0.041 ± 0.052
3,P13K,0.055 ± 0.07
4,P13W,-0.102 ± 0.098
5,P13H,-0.054 ± 0.051
6,P13R,-0.183 ± 0.046
7,P13I,-0.154 ± 0.054
8,K19H,-0.01 ± 0.04
9,K19L,-0.026 ± 0.028
10,K19P,-0.999 ± 0.1
11,K19Y,-0.01 ± 0.041
12,K19C,-0.089 ± 0.036
13,K19R,-0.017 ± 0.023
14,K19N,-0.037 ± 0.044
15,K19F,-0.041 ± 0.036
16,K19W,-0.195 ± 0.03
17,K19E,-0.029 ± 0.037
18,K19M,-0.071 ± 0.033
19,K19D,-0.016 ± 0.035
20,K19G,0.025 ± 0.023
21,K19Q,-0.016 ± 0.035
22,K19V,-0.008 ± 0.025
23,K19A,0.022 ± 0.026
24,K19I,-0.102 ± 0.045

row,Variant,abundance fitness
1,K19T,-0.009 ± 0.03
2,I16C,-0.143 ± 0.058
3,I16Y,-0.593 ± 0.11
4,I16L,0.088 ± 0.036
5,I16E,-0.932 ± 0.13
6,I16A,-0.115 ± 0.035
7,I16P,-0.765 ± 0.13
8,I16W,-0.044 ± 0.033
9,I16N,-0.654 ± 0.18
10,I16T,-0.659 ± 0.073
11,I16Q,-0.849 ± 0.12
12,I16V,-0.081 ± 0.034
13,I16D,-0.933 ± 0.21
14,I16K,-1.14 ± 0.24
15,I16F,0.109 ± 0.064
16,I16S,-1.08 ± 0.15
17,I16G,-0.98 ± 0.075
18,H25L,-0.064 ± 0.025
19,H25D,-0.163 ± 0.037
20,H25F,-0.194 ± 0.05
21,H25T,-0.09 ± 0.029
22,H25W,-0.32 ± 0.031
23,H25N,0.027 ± 0.036
24,H25Y,-0.102 ± 0.047

row,Variant,abundance fitness
1,H25I,-0.073 ± 0.047
2,H25R,-0.016 ± 0.021
3,H25C,-0.013 ± 0.031
4,H25G,-0.046 ± 0.021
5,H25M,-0.019 ± 0.031
6,H25P,-0.819 ± 0.06
7,H25A,-0.016 ± 0.024
8,H25E,0.019 ± 0.027
9,H25Q,0.019 ± 0.03
10,M14C,-0.127 ± 0.046
11,M14S,-0.149 ± 0.033
12,M14N,-0.337 ± 0.047
13,M14V,-0.017 ± 0.032
14,M14A,-0.078 ± 0.036
15,M14W,-0.042 ± 0.05
16,M14I,0.055 ± 0.037
17,M14K,-0.784 ± 0.1
18,M14L,0.001 ± 0.029
19,M14Q,-0.531 ± 0.07
20,M14T,-0.165 ± 0.042
21,M14F,-0.01 ± 0.04
22,M14R,-0.858 ± 0.078
23,M14Y,-0.206 ± 0.049

# Source: the Human Domainome abundance scans (Beltran et al. 2025)
